Laboratory results from a protein production outcome set (Wang et al. 2014).

assay: label from the status in PepcDB records

| Sequence | protein production |
| --- | --- |
| MMPLKDGDFVLINYTVKVVEDGSERVIDTTLEEVAKKSGIYDPKRVYKEFPVIVGKTSLLGPLEKVLKELDVGERREVEVPPEEAFGEYKKELVVRVPVKRLRRMNIPVRVGEEVEAGGRRGKIIRVTERFAFIDFNHPLAGKKLKIEVEVVGKVDSVEDKARILAARALGLDPDKIHAEVREGGKEITLKLPPEVLGLSDLDALLAKAVSDVREYLSPRKVDVVISIEFPEEAREEAEASDTGEGGEAEGESEQAAEPGGGEERQEG | failed |
| MMRHERLRFWLAGLAAAATGWLCYAGLARLAGALGVATWIPYPALRRQWLLIGESWQSAEFSGAIADASVFLTALAAVAAYYCARIVYHLSFAPVRQRRARWLIAGWIVGTVAMVALSQSLGWLYGAFPGFARIGWLSAALGFAVLAGAASGFARAWGRLMRARKVPATE | failed |
| MMRQVRRGATPPPGPGPSAPPYGAGVPQQPSYTDGQGHGGDGYDSGYNTGQVYGGGGGGQGPGRQVRDRPAPDWRRRIKWTAITVVTVLVVTTVGTYFWADSKLNRDVDLSKVIDRPAAGEGTNYLIVGSDSREGMSKDQMKDLHTGYAEGKRTDSMMILHTGDNGSTLISLPRDSDVEIPSFVGSESGKKYPGTGRHTKLNAAYAEDGPELLVRTVEHNTGLRLDHYVEIGFGGFANIVDAVGGVEIDIPQDIKDKKSGADLKKGKQTLDGQEALAFVRTRYALAGSDLDRTKNQQKFLSALASQVATPSTVLNPFRLYPTMGAGLDSLVVDKDMGLFDLASMFWAMKSVSGGEGTSMNMPISGSVGGNLKWDDAKVKKLVEELKNDEKVTVSGNN | failed |
| MMSFSQIINDFIQSFSSINLGGNFKEIVTNPLTILTLIGVLIILVLLIKAKDIKFDAKMLTTIGIALALTAVLNMLKIYKFPQGGGITLGSMIPIILIAYAYGPLVGMLTGFLFGIISLFIDPYILHPVQVLFDYPIPYMALGVAGFFKNHRISGAVVAIFLKFLAHFISGVVFFGSFAPEGMSPILYSFLVNGSLIGADGLICVVLLGILPVNRLIKAISSKSVTSKYAS | failed |
| MMSGEHTLKAVRGSFIDVTRTIDNPEEIASALRFIEDGLLLIKQGKVEWFGEWENGKHQIPDTIRVRDYRGKLIVPGFVDTHIHYPQSEMVGAYGEQLLEWLNKHTFPTERRYEDLEYAREMSAFFIKQLLRNGTTTALVFGTVHPQSVDALFEAASHINMRMIAGKVMMDRNAPDYLLDTAESSYHQSKELIERWHKNGRLLYAITPRFAPTSSPEQMAMAQRLKEEYPDTWVHTHLCENKDEIAWVKSLYPDHDGYLDVYHQYGLTGKNCVFAHCVHLEEKEWDRLSETKSSIAFCPTSNLYLGSGLFNLKKAWQKKVKVGMGTDIGAGTTFNMLQTLNEAYKVLQLQGYRLSAYEAFYLATLGGAKSLGLDDLIGNFLPGKEADFVVMEPTATPLQQLRYDNSVSLVDKLFVMMTLGDDRSIYRTYVDGRLVYERN | failed |
| MMSNGGDSSEIVRELEELKLKKAEIEHRISTLEAKLQDTAAVELYDAVSNGDSYLTAPELEHGLSPDQIYRYSRQLLLPSFAVEACGVGQLGIIDHDVVELNNMHRQIIHTEAFIGHPKVKSAAAACRSINSTIKVDEYVEALRTSNALEILSQYDIIVDATDNPPSRYMISDCCVLLGKPLVSGAALGMEGQLTVYNHNGGPCYRCLFPTPPPTSACQRCSDSGVLGVVPGVIGCLQALETIKLASLVGEPLSERMLLFDALSARMRIVKIRGRSSQCTVCGDNSSFNKQTFKDFDYEDFTQFPLFAGPLNLLPAESRISSKEFKEILQKKEQHVLLDVRPSHHYKIVSLPDSLNIPLANLETRLNELTSALKEKGNGHANTESCTNPSVFVVCRRGNDSQRAVQYLRESGFDSAKDIIGGLEAWAANVNPNFPTY | failed |
| MMSPRIGLTLQKIVETAAEIADANGVQEVTLASLAQTLGVRSPSLYNHVKGLQDVRKNLGIYGIKKLHNRLEEAAEDKRMDEAIHALGEAYVAFVRKHPGLYEATFLRDEEVRKAGDGIVKLCLQVLQQYGLEGENALHATRGFRSICHGFASIEQQGGFGLPLDLDISLHVLLETFIKGLRE | not failed |
| MMSSSRRSFMAAGLVVVLAVAALIFGAPGPVPLSAGSSMSDRGAADTAEAPPKSSWAGRQFRDMTLDEKIAQLFVVRIDGEFQNANTPSYRETVALVEEFGAGGLIFGPGTPMTQIAMANDLQAKAERPLLVAQDTEWGVGMRIDAATSFPPAMAIGATRDASHAYRVGYATAREARALGVHQLYAPVADVNNNPKNPIINVRSFGESPSLVGTMASAFTRGAQRGGTLATVKHFPGHGDTDVDSHINLPVLRFDRSRLDSLELPPFRQAFDAGVRSVMTGHLALPEIAADSVPATLSRPLTHGLLREELGFDGLVVTDALNMQAVTRTFGVGETAVRVLEAGADLVLMSTNPHAAHQAVRQAVTSGRIDTTEINDSVRRLLRVKQDLRLHETRRVSLDTTRHRVAQRSHEVLARTVARESLTLLANADSLLPLTPPEQHDALVVTLSDSEYPGTGDTFVDRLRAQPAIETLDTRRLDPRSDSTDVNDHLADAADYDVVVVPSFLRVQAWSGSIGLSDMHHDFLEDLAGTDTPVAFVAFGNPYAPTGLEPAPDAILAAYGSGEASQRAAAQALGGGAGTPGRLPVTIPGVAEKGEGRRLAPVAPREGPPESVGMDGAQLARLDTLLRSAMLDGAFPGAAVAVGRGPALARLDAYGYHTYDETKPVQTGTQYDLASLTKVVATTTAVMKLYEADSLELDAPVARYLPDFAQNGKEAVTVRQLLTHSSGLKPYLDPDERGPTRAALLDTLMAQPLTYTPGTRSTYSGLNAIALMRIVETISGRPFDAFCRTHIFEPLGMDQTGFYDTDVTRAWVAPTTDTAGTRRRGSVHDPMARDMDGVSGNAGLFSTAADLARFGYMLTHEGRIDGRQFLEPKTIETFTAQADVPGSTRALGWDTKSAEGYSSAGDEFSAASFGHTGYTGTSFWVDPAEDLFFVLLTNRVYPDDTADRITQVRPRAADIVHRAIDGPPRPLLPGPAPEQ | failed |
| MMTDKLNLNVLDAAFYSLEQTVVQISDRNWFDMQPSIVQDTLIAGAIQKFEFVYELSLKMMKRQLQQDAINTDDIGAYGFKDILREALRFGLIGDMSKWVAYRDMRNITSHTYDQEKAMAVYAQIDDFLIESSFLLEQLRQRNQYD | not failed |
| MMTHYSDNTLKVAHQGFEFFTQGLATGEWQKFLDMLTEDFTFWFPMGEFHGLNVGKERAKEFFTYVSESFHTGIQISSLDRVTSNETTVVFEFRDEGLFLGKPYKNRVAVSFDVRGDKICSYREYFGSDGKSN | not failed |
| MMTSAAPKPVRENIARAKAYLRRDDLPRSMAAMATALRELKGTRLIGQARFETEVNIHEYVTELNRHQAVRRFFEAQGVLSTPFVTYAKGAETELAERLESIRAGFEKDVAAHAAQHAAKVAHRKEALLRSGQEKLDAGDAPRGRSFLKRAADEFGHEAGVLTDIGQRLQRAGLLFEAAEMFENAIAAFPKDGHAHAGVVAAYMGLQEYPKAEMAYTRALKQFGTHPKTLVNMARMYLAWRKRDEAWTHIQRALQLAPGDAEAKALLAEIEGRGSRR | failed |
| MMVLRMKVEWYLDFVDLNYEPGRDELIVEYYFEPNGVSPEEAAGRIASESSIGTWTTLWKLPEMAKRSMAKVFYLEKHGEGYIAKIAYPLTLFEEGSLVQLFSAVAGNVFGMKALKNLRLLDFHPPYEYLRHFKGPQFGVQGIREFMGVKDRPLTATVPKPKMGWSVEEYAEIAYELWSGGIDLLKDDENFTSFPFNRFEERVRKLYRVRDRVEAETGETKEYLINITGPVNIMEKRAEMVANEGGQYVMIDIVVAGWSALQYMREVTEDLGLAIHAHRAMHAAFTRNPRHGITMLALAKAARMIGVDQIHTGTAVGKMAGNYEEIKRINDFLLSKWEHIRPVFPVASGGLHPGLMPELIRLFGKDLVIQAGGGVMGHPDGPRAGAKALRDAIDAAIEGVDLDEKAKSSPELKKSLREVGLSKAKVGVQH | not failed |
| MMWEQFKKEKLRGYLEAKNQRKVDFDIVELLDLINSFDDFVTLSSCSGRIAVVDLEKPGDKASSLFLGKWHEGVEVSEVAEAALRSRKVAWLIQYPPIIHVACRNIGAAKLLMNAANTAGFRRSGVISLSNYVVEIASLERIELPVAEKGLMLVDDAYLSYVVRWANEKLLKGKEKLGRLQEALESLQRENAYCSD | not failed |
| MMYTNDNRIVMTLDAGGTNFVFSAIQGGKEIADPVVLPACADCLDKCLGNLVEGFKAIQAGLPEAPVAISFAFPGPADYQAGIIGDLPNFPSFRGGVALGPFLEDIFGIPVFINNDGSLFAYGEALTGVLPEINRRLREAGSTKRYKNLLGVTLGTGFGAGVVIDGELLRGDNAAGGYVWCLRNKKYPEYIVEESVSIRAVMRVYAERSGDAGARTPKEIFEIAEGIRPGNREAAIAAFEELGEMAGDALASAITLIDGLIVIGGGLSGASKYILPVLLKEMNAQTGMMDGARFGRLQKEVYDLDEEKSFAGFARGEAVEVLVPGTNRKVGYDPCKRIGVTFSKQGANRSIAMGAYVFALNHLSK | not failed |
| MNADEFVEAFNNAKDLTELELLAELGKSISDDLEGHEKGKVLGTLGNIYYALHRLKEAEEAYLEALNVYLKLSEEDEGFLPYVVGCLYNLGNLYQVSRKFAEAEKAYTDALKVLGDVRNDQRLAILTALGTMYAKLDMKEHAERCLVEAFEMAKVKGDARLLGTLLNNLAVVYQRGGRKREAAMLLKMALDALERVGEDLGIAAVLQNLLPYLDEDELRRVMERLESFGELPIDLKAKIAYFKARRAEEKGEDSAKHYMEAACLGFMAYRNFGFQSINFMHCLDKVIESDSELREDAVVLKKVILKYYYGSQKVEIDFDSRVGRMIKAVLEGDDIYEDGILEDTVRLIAEDLLKAGTKV | failed |
| MNADGWLADTRSSYDTVAVSYADQLRGALAGTPYLRAALELFAGMIHTAGGGPVADVGCGPGHVTAHLHGLGVDAFGIDLSPAMIDVARRDHPDLRFEVGSMTDLNLADASVTALLAFWSLIHVPDDAIPAVFGHFRRVVRPGGPLLLGFHIGDESRLKTEGYGGHPMKVHVHHRQPVQVTAWLRDAGFTVEAQWLLGLDGHIPGAVLFAHRQSLEHHHHHH | failed |
| MNAHRAQLISLARPVYFSLLASVAAGIINTVWVSRLGGPAVAAVAVATNTENVLLGVALVFASGTTVLVAHARGAQDPGAVRAAVRGGWALCAVVTPVVAGCGYLLREPLARLVLGGEGPALPLAVGYFAISLPGITVFYAQNLVDGILKGAGDTRTPMRLALLANGLILALDPLLIHRYGVRGAAVSTVLCRCAALGVGLLALRRNALLRGAAAVRPAEATGAALRRTLSTGLPMSADFTVRQGGALVLVAIVARLGVTAVAAYSIAYKVMYVATMAFYAVRQAASIHTAHTRGADRRASSRSAGAGSGGERRAIGRQAVVVSGTVGLLASALLCVLAPWVMRAFGAGPEVAHQGVLFLRCVGPYLLLMACFIALGGVFEGSGGAPVLLRVTLLGTAVQLPLAYALSGLGLPGICLALALAMVVQCAALLPGVRRQEDARDSLVRVA | failed |
| MNAIVEPRRAQPTDSDAILNALPNPVLLVGPDGKIVDANMAAESFFEISTQLLRRQSLTDLVPFGSPLLALIEQVRVGHSPVNEYKVDLGTPRIGADRQVDLHVAPLNERPGHIVVMLQERTIADKMDRQLTHRSAARSVIALAAMLAHEIKNPLSGIRGAAQLLEQQASAEDRMLTRLICDEADRIVTLVDRMEVFGDDRPVARGPVNIHSVLDHVKRLAQSGFARNIKFIEDYDPSLPPVLANQDQLIQVFLNLVKNAAEAVVDLGSDGEIQLTTAFRPGVRLSVPGKKTRVSLPLEFCVRDNGPGVPEDLLPNLFDPFVTTKPSGSGLGLALVAKIVGDHGGIIECESQPRKTTFRVLMPMFNTAKALQSPNGEDAPASSDASQTAR | failed |
| MNAPLLTQDTKRTLAWIAVAVAFLALLKLLAPTLTPFVFAGILSYILHPGVEWLQRHRVPRVLGVFLMILLLTVVAVALMLLILAVLQREIPAIREQLPGMLSKLNAAVTPRLAEMGVHVRFDFPGLRKLLTEQLAASPEDVMSTALNYLRVSGSAAVQVLGIVFLVPIVMFYLLMDWNMLIRRLEGAVPRRWISKTRELAAETDGLLSQYLRGQIIVMLVLAAYYSAGLALAGFDVALPIGIFTGLAVFIPYIGFGIGLILAILSALLQFGNLYGLLAVAVVYGVGQVLEGFYLTPRLVGERIGLHPLAVILALLAFGQLFGFFGILLALPISAVLLVGLRQIRQLYLGSKLYRD | failed |
